Substrate in series [1]: CC(=O)OCC1=C(C(=O)O)N2C(=O)[C@@H](NC(=O)Cc3cccs3)[C@H]2SC1
In words: (§1) Binding affinity for TEM-1 beta-lactamase. The settings on record: Escherichia coli.

Substrate in series [2]: CC1(C)S[C@@H]2[C@H](NC(=O)Cc3ccccc3)C(=O)N2[C@H]1C(=O)O
The series is described as §1. The settings on record: Escherichia coli.

B1: Beta-lactamase TEM (Escherichia coli), P62593 (protein)
chain: MSIQHFRVALIPFFAAFCLPVFAHPETLVKVKDAEDQLGARVGYIELDLNSGKILESFRPEERFPMMSTFKVLLCGAVLSRVDAGQEQLGRRIHYSQNDLVEYSPVTEKHLTDGMTVRELCSAAITMSDNTAANLLLTTIGGPKELTAFLHNMGDHVTRLDRWEPELNEAIPNDERDTTMPAAMATTLRKLLTGELLTLASRQQLIDWMEADKVAGPLLRSALPAGWFIADKSGAGERGSRGIIAALGPDGKPSRIVVIYTTGSQATMDERNRQIAEIGASLIKHW
Usually Km stands for the substrate concentration at which the rate is half of its maximum. As to B1, the Km in series [1] is 347 µM; in series [2], 75 µM.
